Measured values published in patent publication US20020147326A1, “Hexameric fusion proteins and uses therefor” (SmithKline Beecham Corporation, priority 1996, published 2002).
Entries after “also recorded” stand apart in the source; their conditions may differ.

Legend:
[1] = molecular target: T1, biotinylated CD80-Igαtp binding to immobilized CD28-Ig (Homo sapiens, UniProt P10747); experiment: Competition ELISA of biotinylated CD80-Igαtp binding to immobilized CD28-Ig; details: competitor added simultaneously; wells coated with CD28-Ig
T1 construct: native leader and extracellular domain peptide of CD28 and CD80 were grafted onto a human IgG1 heavy chain Fc region; human IgG1 Fc (hinge/CH2/CH3); made in house; host or cells: CHO cells
Experimental: The wells of 96 well microtiter plates (Immunlon 4, Dynatech Laboratories) were coated with CD28-Ig (1, 2, or4 μg/ml) in 100 μl/well of 0.1 M sodium bicarbonate, pH 9.4 and incubated overnite @4° C. The wells were washed with PBS (phosphate buffered saline) and blocked with 0.5% gelatin in PBS for 1 hour. Following an additional PBS wash, biotinylated CD80-Igαtp was serially diluted in PBS containing 1 mg/ml BSA, 0.05% Tween directly in the wells in a final volume of 0.1 ml and incubated for 1 hour. The wells were washed with PBS and bound CD80-Igαtp protein was measured by the addition of 0.1 ml of strepavidin-HRP (streptavidin conjugated with horseradish peroxidase (Southern Biotech)) at a 1:2000 dilution for 1 hour, followed by washing and color development with 100 μl ABTS substrate (Kierkegaard and Perry Laboratories Inc., Maryland) and measurement of absorbance at 405 nm. In some cases the color reactions were arrested by addition of 100 μl of 1% SDS prior to measurement of absorbance. In this figure, “CD28-Fc”, “CTLA4-Fc”, and “B7-FcA” denote CD28-Ig, CTLA4-Ig, and CD80-Igαtp, respectively.

[2] = test system: murine T-cell hybridoma cell lines expressing human CD28 (PCD28.1.s2.1, DCL27CD28wt.s2); experiment: IL-2 production by CD28 T-cell hybridomas (CTLL-2 bioassay); type: cell-based; details: addition of CTLA4-Ig
Text: The CD80- and CD86-Igαtp proteins were compared to the corresponding CD80 and CD86-Ig proteins to determine their ability to stimulate cells expressing human CD28 using two murine T-cell hybridoma cell lines expressing human CD28, PCD28.1.s2.1 and DCL27CD28wt.s2. The PCD28.1.s2.1 cell line was described in Example 1, part 3. The DCL27CD28wt.s2 cell line was created by transfection of the DC27 cell line [F. Pages et al., Nature, 369:327-329 (1994); F. Pages et al., J. Biol. Chem., 271(16):9403-9409 (1996)] with the same CD28 expression vector used for the PCD28.1.s2.1 cells [D. Couez et al., Molecular Immunology, 31:47-57 (1994)]. These cell lines were examined for their ability to produce IL-2 in response to activation with CD80- and CD86-Ig in comparison with the corresponding Igαtp fusion proteins. 96-well plates were coated with or without a CD3 antibody together with the CD80 and CD86 fusion proteins. This was accomplished by first incubating the plates with a previously determined suboptimal concentration of hamster […] CD3 antibody (MAb 145-2C11, Boerhinger-Mannheim Biochemicals) for two hours at room temperature (RT) or with just buffer alone, washing the plates with PBS, adding goat anti-human Ig heavy chain (GAH-IgHc, Sigma Chemical Co.) for an additional two hours at RT, washing again and coating with different concentrations of the CD80 or CD86 fusion protein for 16-18 hours at 4° C., washing again, and finally blocking for 30 min. with 0.2% BSA-PBS. T cells (1×10^5/well) were added in 150 μl medium into duplicate wells. For comparison, the soluble fusion proteins and the 248.23.2 CD28 MAb (IgM) [A. Morretta, University of Genova, Italy] were added to non-coated wells. T cells were incubated in the wells for 24 hours at 37° C., and supernatants were collected and evaluated for IL-2 levels in a standard CTLL-2 bioassay [S. M. Gillis et al., J. Immunol., 120:2027 (1978)]. Briefly, 1×10^4 IL-2 dependent CTLL-2 cells (ATCC)/well in 75 μl medium were added to an equal volume of test supernatant and incubated for 24 hours at 37° C. The cells were pulsed with 10 μl of 5 mg/ml MTT (Sigma Chemical Co.) for 4 hours, and lysed with […] 10% SDS/0.01N HCl solution for 14-16 hours. OD570 readings were converted into ng/ml of IL-2 based on a standard curve generated by treating cells with known concentrations of IL-2.
IL-2 promoter activity and IL-2 levels were measured similarly to that described in parts A and B above, except that proliferation of the reader CTLL-2 cells was measured by ^3H-thymidine incorporation.

Substance: CTLA4-Ig: binding protein/Fc construct for human CTLA4 with human IgG1 Fc
- inhibition of biotinylated CD80-Igαtp binding to immobilized CD28-Ig [1]: inhibited; also recorded: blocked the binding sites on CD80-Igαtp
- blockade of the response to CD80- and CD86-Igαtp [2]: complete blockade
